Laboratory results as given in US20140148355A1 (UNIVERSITY OF OSLO, published 2014).
Values belong to the binder of their own block, whether it stands above or below them. Square brackets hold non-standard residues; d marks the D form. Ends that are not written are not given here. Lys(Me) = CNCCCC[C@H](N)C(=O)O

Key:
[1] = target: histone H3 dimethylated on lysine 4 in Arabidopsis seedling chromatin (nucleosomes) (Arabidopsis, UniProt P59226 2-136); assay: chromatin pull-down from Arabidopsis seedlings, quantified western blot
[2] = target: histone H3 monomethylated on lysine 4 in Arabidopsis seedling chromatin (nucleosomes) (Arabidopsis, UniProt P59226 2-136); assay: as above
[3] = target: histone H3 trimethylated on lysine 4 in Arabidopsis seedling chromatin (nucleosomes) (Arabidopsis, UniProt P59226 2-136); assay: as above
[4] = target: T1, ASHH2 CW domain (13C/15N labelled, cleaved from GST with thrombin) (Arabidopsis thaliana, UniProt Q2LAE1 850-937, limits assumed, 13C and 15N isotope labelled; binds one Zn2+ through Cys868, 871, 893, 904); assay: NMR, 15N-1H HSQC chemical shift changes, peptide:CW about 1.1:1
T1 construct: domain: CW domain; Free CW domain used for NMR; The structure is deposited as PDB 2l7p (printed '217p')
T1 sequence (looked up): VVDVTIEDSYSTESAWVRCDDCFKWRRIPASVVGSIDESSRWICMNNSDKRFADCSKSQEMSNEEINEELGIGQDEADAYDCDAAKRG

bound chromatin relative to input chromatin [1]: 3.3 times of input material (2.5%) | bound chromatin relative to input chromatin [2]: 4.4 times of input material (2.5%) | bound chromatin relative to input chromatin [3]: 2.1 times of input material (2.5%)
B1: GST-ASHH2-CW (other, Arabidopsis thaliana, UniProt Q2LAE1 850-937, looked up)
chain: T1 sequence (looked up)
notes: domain: CW domain; Expressed in bacteria from pSXG (Eco RI/Bam HI); also called GST-CWASHH2; GST-tagged ASHH2 CW protein; not shown: glutathione-S-transferase (GST) tag encoded by the pSXG vector

binding result [4]: binds
B2: synthetic H3 peptide (residues 1-16) ARTK(me1)QTARKSTGGKAY (peptide)
peptide: ART[Lys(Me)]QTARKSTGGKAY
notes: Bought from CASLO and used for NMR at about 1.1:1 with the CW domain; also called histone H3K4me1 peptide (1-15); monomethylated H3K4 peptide
